Data taken from patent US20210025890A1 (Genentech, published 2021).
Values belong to the binder of their own block, whether it stands above or below them.

Tests used:
FAP-cleaved human FGF21 [1] = molecular target: T1, FAP-cleaved human FGF21 (human, UniProt Q9NSA1 29-199); assay: sandwich ELISA; capture mAb15, detection mAb4
T1 construct: Made by digesting intact human FGF21 with human FAP; also called cleaved FGF21; cFGF21
T1 sequence: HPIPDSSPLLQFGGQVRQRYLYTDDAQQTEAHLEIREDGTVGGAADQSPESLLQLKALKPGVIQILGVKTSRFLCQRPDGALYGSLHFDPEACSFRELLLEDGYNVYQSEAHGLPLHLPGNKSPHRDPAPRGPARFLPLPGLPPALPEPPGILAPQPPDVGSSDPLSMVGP
Source text: (§1) The absorbance values were plotted as a function of antibody concentration and the data were fitted to a three parameter equation for each antibody using Prism 6 (GraphPad Software, Inc., La Jolla, Calif.). The most consistent result was observed when antibodies mAb4 or 9 were used as the capture antibody and antibody mAb11 or mAb15 was used as the detector antibody (FIG. 2 and Table 7). Therefore, mAb8 and 16 were removed from further analysis.

intact human FGF21 [2] = molecular target: T2, intact human FGF21 (human, UniProt Q9NSA1 29-209); assay: sandwich ELISA; capture mAb15, detection mAb4
T2 construct: also called full-length, uncleaved FGF21; iFGF21
T2 sequence: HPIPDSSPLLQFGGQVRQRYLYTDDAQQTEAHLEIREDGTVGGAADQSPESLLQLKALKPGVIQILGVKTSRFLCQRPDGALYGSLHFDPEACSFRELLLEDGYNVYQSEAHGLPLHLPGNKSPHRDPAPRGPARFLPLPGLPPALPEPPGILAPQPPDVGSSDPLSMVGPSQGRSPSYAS
Source text: as §1

FAP-cleaved human FGF21 [3] = molecular target: T1, FAP-cleaved human FGF21; assay: sandwich ELISA; capture mAb15, detection mAb11
Source text: as §1

intact human FGF21 [4] = molecular target: T2, intact human FGF21; assay: sandwich ELISA; capture mAb15, detection mAb11
Source text: as §1

FAP-cleaved human FGF21 [5] = molecular target: T1, FAP-cleaved human FGF21; assay: sandwich ELISA; capture mAb4, detection mAb16
Source text: as §1

intact human FGF21 [6] = molecular target: T2, intact human FGF21; assay: sandwich ELISA; capture mAb4, detection mAb16
Source text: as §1

intact human FGF21 [7] = molecular target: T2, intact human FGF21; assay: sandwich ELISA, intact human FGF21; capture mAb4, detector mAb11
Source text: (§2) The absorbance values were plotted as a function of antibody concentration and the data were fitted to a three parameter equation to calculate the half maximal effective concentration (EC₅₀) values for each antibody using Prism 6 (GraphPad Software, Inc., La Jolla, Calif.) (Table 6).

FAP-cleaved human FGF21 [8] = molecular target: T1, FAP-cleaved human FGF21; assay: sandwich ELISA; capture mAb4, detection mAb11
Source text: as §1

intact human FGF21 [9] = molecular target: T2, intact human FGF21; assay: sandwich ELISA; capture mAb4, detection mAb11
Source text: as §1

FAP-cleaved human FGF21 [10] = molecular target: T1, FAP-cleaved human FGF21; assay: sandwich ELISA; coated primary Ab, FGF21 titrated, detector biotinylated goat anti-FGF21 pAb BAF2539
Experimental: (§3) IgG obtained from the selected 20 hybridomas identified in Example 1 were further characterized by ELISA. ELISA was performed as follows: 96 well MaxiSorp plate (439454, Nalge Nunc International; Rochester, N.Y.) was coated with 1 μg/mL of anti-FGF21 mAbs or anti-FGF21 sheep pAbs (Cat. No. RD184108100, Biovendor, Asheville, N.C.) in coating buffer (50 mM sodium carbonate, pH 9.6) overnight at 4° C. […] After washing with the Washing buffer, the plate was incubated with 0.5 μg/ml of the secondary antibody (R&D Systems, biotinylated goat anti-FGF21 pAb BAF2539) for 1-2 hr at room temperature. After washing with Washing buffer, the plate was incubated with High Sensitivity Streptavidin-HRP (PIERCE Cat. No. 21130) diluted 1:1,000 in assay buffer. After washing with the Washing buffer, the binding of anti-FGF21 to recombinant FGF21 was assessed by adding substrate 3, 3′, 5, 5′ tetramethyl benzidine (TMBE 1000, Moss; Pasadena, Md.). The mean absorbance values from duplicate wells were plotted as a function of antibody concentration and the data were fitted to a three parameter equation to calculate the half maximal effective concentration (EC₅₀) values for each antibody using Prism 6 (GraphPad Software, Inc., La Jolla, Calif.) (Table 2).

intact human FGF21 [11] = molecular target: T2, intact human FGF21; assay: as above
Experimental: as §3

FAP-cleaved human FGF21 [12] = molecular target: T1, FAP-cleaved human FGF21; assay: sandwich ELISA; EC50 on FAP-cleaved FGF21 over EC50 on intact FGF21
Experimental: as §3

intact human FGF21 [13] = molecular target: T2, intact human FGF21; assay: sandwich ELISA, intact human FGF21; capture mAb4, detector mAb1
Source text: as §2

FAP-cleaved human FGF21 [14] = molecular target: T1, FAP-cleaved human FGF21; assay: sandwich ELISA; capture mAb4, detection mAb15
Source text: as §1

intact human FGF21 [15] = molecular target: T2, intact human FGF21; assay: sandwich ELISA; capture mAb4, detection mAb15
Source text: as §1

intact human FGF21 [16] = molecular target: T2, intact human FGF21; assay: sandwich ELISA, intact human FGF21; capture mAb4, detector mAb10
Source text: as §2

FAP-cleaved human FGF21 [17] = molecular target: T1, FAP-cleaved human FGF21; assay: sandwich ELISA; capture mAb11, detection mAb15
Source text: as §1

intact human FGF21 [18] = molecular target: T2, intact human FGF21; assay: sandwich ELISA; capture mAb11, detection mAb15
Source text: as §1

FAP-cleaved human FGF21 [19] = molecular target: T1, FAP-cleaved human FGF21; assay: sandwich ELISA; capture mAb11, detection mAb4
Source text: as §1

intact human FGF21 [20] = molecular target: T2, intact human FGF21; assay: sandwich ELISA; capture mAb11, detection mAb4
Source text: as §1

intact human FGF21 [21] = molecular target: T2, intact human FGF21; assay: sandwich ELISA, intact human FGF21; capture mAb11, detector mAb9
intact human FGF21 [22] = molecular target: T2, intact human FGF21; assay: sandwich ELISA, intact human FGF21; capture mAb11, detector mAb4
FAP-cleaved human FGF21 [23] = molecular target: T1, FAP-cleaved human FGF21; assay: sandwich ELISA; capture mAb9, detection mAb16
Source text: as §1

intact human FGF21 [24] = molecular target: T2, intact human FGF21; assay: sandwich ELISA; capture mAb9, detection mAb16
Source text: as §1

intact human FGF21 [25] = molecular target: T2, intact human FGF21; assay: sandwich ELISA, intact human FGF21; capture mAb9, detector mAb11
FAP-cleaved human FGF21 [26] = molecular target: T1, FAP-cleaved human FGF21; assay: sandwich ELISA; capture mAb9, detection mAb15
Source text: as §1

intact human FGF21 [27] = molecular target: T2, intact human FGF21; assay: sandwich ELISA; capture mAb9, detection mAb15
Source text: as §1

FAP-cleaved human FGF21 [28] = molecular target: T1, FAP-cleaved human FGF21; assay: sandwich ELISA; capture mAb9, detection mAb11
Source text: as §1

intact human FGF21 [29] = molecular target: T2, intact human FGF21; assay: sandwich ELISA; capture mAb9, detection mAb11
Source text: as §1

intact human FGF21 [30] = molecular target: T2, intact human FGF21; assay: sandwich ELISA, intact human FGF21; capture mAb9, detector mAb10
Source text: as §2

intact human FGF21 [31] = molecular target: T2, intact human FGF21; assay: sandwich ELISA, intact human FGF21; capture mAb9, detector mAb1

EC50 (FAP-cleaved human FGF21 [1]): 0.562 ng/mL
EC50 (intact human FGF21 [2]): 0.537 ng/mL
EC50 (FAP-cleaved human FGF21 [3]): 1.24 ng/mL
EC50 (intact human FGF21 [4]): 1.39 ng/mL
B1: mAb15 (antibody, V domains shown)
VH: QVQLIQSGPGLVQPSQSLSITCTVSGFSLTGYAIHWVRQSPGKGLEWLGMIWKSGNTDYNAAFMSRLSITKDNSKSQVFFKMNSLQADDTAIYYCARNGYDYEFVYWGQGTLVTVSA
VL: DVLMTQTPLSLPVSLGDQASISCRSSQIIVHNNGDTYLEWYLQKPGQSPKLLIYKISNRFSGVPDRFSGSGSGTDFTLKISRVEAEDLGVYYCFQGSHVPYTFGGGTKLEIKR
notes: Biotinylated when used as detector; also called BIO-15 (biotinylated); mAb15-Biotin

EC50 (FAP-cleaved human FGF21 [5]): 7.04 ng/mL
EC50 (intact human FGF21 [6]): 1.25 ng/mL
EC50 (intact human FGF21 [7]): 0.133 ng/mL
EC50 (FAP-cleaved human FGF21 [8]): 0.148 ng/mL
EC50 (intact human FGF21 [9]): 0.195 ng/mL
EC50 (FAP-cleaved human FGF21 [10]): 0.17 ng/mL
EC50 (intact human FGF21 [11]): 0.09 ng/mL
EC50 ratio (Cleaved/Intact) (FAP-cleaved human FGF21 [12]): 1.9
EC50 (intact human FGF21 [13]): 0.193 ng/mL
EC50 (FAP-cleaved human FGF21 [14]): 0.263 ng/mL
EC50 (intact human FGF21 [15]): 0.232 ng/mL
EC50 (intact human FGF21 [16]): 0.108 ng/mL
B2: mAb4 (antibody, V domains shown)
VH: EVKLVESGGDLVKPGGSLKLSCAASGFTFSSYGMSWVRQTPDKRLEWVATISTGGGYTYYPDSVKGRFTISRDNAKNTLYLQMSSLRSEDTAMYYCARHDLVDWYFDVWGTGTTVTVSS
VL: QIVLTQSPAIMSAPLGERVTMTCTASSSVSSSYLHWYQQKPGSSPKVWIYRTTNLASGVPTRFSGSGSGTSYSLTISSMEAEDAATYYCHQYHRSPPTWTFGGGTKLEIKR
notes: Biotinylated when used as detector, coupled to beads in the Simoa assays; also called BIO-4 (biotinylated); antibody 4

EC50 (FAP-cleaved human FGF21 [17]): 0.63 ng/mL
EC50 (intact human FGF21 [18]): 0.774 ng/mL
EC50 (FAP-cleaved human FGF21 [10]): 0.318 ng/mL
EC50 (intact human FGF21 [11]): 0.149 ng/mL
EC50 ratio (Cleaved/Intact) (FAP-cleaved human FGF21 [12]): 2.1
EC50 (FAP-cleaved human FGF21 [19]): 0.204 ng/mL
EC50 (intact human FGF21 [20]): 0.205 ng/mL
EC50 (intact human FGF21 [21]): 0.195 ng/mL
EC50 (intact human FGF21 [22]): 0.161 ng/mL
B3: mAb11 (antibody, V domains shown)
VH: QVQLQQSGAELARPGASVKLSCKASGYTFTNYGISWVKQRTGQGLEWIGEIYPRSDNTYYNEKFKGKATLTADKSSSTAYMELRSLTSEDSAVYFCTRSDYGFFDYWGQGTTLTVSS
VL: QIVLTQSPALMSASPGERVTMTCSAGSSVSYMYWYQQKPRSSPKPWIYLTSNLASGVPARFSGSGSGTSYSLTISSMEAEDAATYYCQQWSSNPRTFGGGTKLEIKR
notes: Biotinylated when used as detector; also called BIO-11 (biotinylated); antibody 11

EC50 (FAP-cleaved human FGF21 [23]): 6.23 ng/mL
EC50 (intact human FGF21 [24]): 1.45 ng/mL
EC50 (intact human FGF21 [25]): 0.156 ng/mL
EC50 (FAP-cleaved human FGF21 [26]): 0.363 ng/mL
EC50 (intact human FGF21 [27]): 0.431 ng/mL
EC50 (FAP-cleaved human FGF21 [10]): 1.39 ng/mL
EC50 (intact human FGF21 [11]): 0.855 ng/mL
EC50 ratio (Cleaved/Intact) (FAP-cleaved human FGF21 [12]): 1.6
EC50 (FAP-cleaved human FGF21 [28]): 0.156 ng/mL
EC50 (intact human FGF21 [29]): 0.166 ng/mL
EC50 (intact human FGF21 [30]): 0.161 ng/mL
EC50 (intact human FGF21 [31]): 0.249 ng/mL
B4: mAb9 (antibody, V domains shown)
VH: EVQLQQSGPELVKPGASVKIPCKASGYTFTDYYMGWVKQSHGKSLEWIGDINPNNGVTINNQNFKGKATLTVDKSSSTAYMELRSLASEDTAVYYCTRGYGGALDYWGQGTSVTVSS
VL: DIQMTQSPASLSASVGETVIITCRASENIYSYLAWYQQKQGKSPQLLVYNIRTLAEGVPSRFSGSGSGTQFSLKINSLQPEDFGSYYCQHHYDSPWTFGGGTKLEIKR
notes: also called BIO-9 (biotinylated); antibody 9
